The values below come from publication doi:10.1101/2021.12.24.474084 (bioRxiv, 2021).

This experiment has as its target SARS-CoV-2 wild-type receptor binding domain (RBD) (ACROBiosystems, Cat No. SPD-C52H3) (SARS-CoV-2 wild-type (MN908947), UniProt P0DTC2). Nature of the experiment: BLI. A general note: BLI is a label-free optical method that tracks binding on a fibre tip over time.

B1: XGv282 monoclonal antibody (antibody, V domains shown)
VH: VQLVQSGAEVKKPGSSVKVSCKASGDTFSSYTFSWVRQAPGQGLEWMGRSIPIVGKAIYAQEFQGRVTISADRSTTTVYMELSSLRSDDTAVYYCARDQSGFDFFYYDHWGQGTLVAV
VL: QSVLTQPPSASGTPGQRVTISCSGSGSNIGSNTINWYQQLPGTAPKVLIYRNNERPSGVPDRFSGSKSGTSASLTISGLQSEDEAYYHCAAWDDSLNGPVFGGGTKLTVL
For B1, the binding result is on record as “binds”.

B2: XGv347 monoclonal antibody (antibody, V domains shown)
VH: QMQLVQSGPEVKKPGTSVKVSCKASGFTFTDVSSLQWVRQARGQRLEWIGWTVVGTGNTNYAPRFQERVTITTDKSTSTAYMELSSLRSEDTAVYYCAAPFCSETSCSDGFDLWGQGTKVTVS
VL: EIVLTQSPGTLSLSPGDRATLSCRASQSVRISYLAWYQQKPGQAPRLLISGSSSRATGIPDRFSASGSGTDFTLTISRLEPEDFAVYYCQQYANSPWTFGQGTKVEV
Take B2: the binding result was “binds”.

B3: XGv265 monoclonal antibody (antibody, V domains shown)
VH: QITLKESGPTLVKPTQTLTLTCNFSGFSLNTYGVGVGWIRQPPGKALEWLALIYWDGDERYGPFFKNKVTIAKDTSKNQVVLTMTNMDPVDTATYYCARHLIPTIFDYWGQGTLVTVSS
VL: ALTQPASVSGSPGQSITISCTGTSSDVGGSNYVSWYQHHPDRAPKLLIYEVTNRPSGVSNRFSGSKSANTASLTISGLQAEDEADYYCSSYTTTSTHILFGGGTKLTV
Regarding B3, the binding result was “binds”.

B4: XGv289 monoclonal antibody (antibody, V domains shown)
VH: QVQLVQSGAEVKKPGASLKVSCRASGYTFTSHFIHWVRQAPGQGLEWMGIINPSGGASYAQNFRDRVTMTTDPSTSTVYMELGSLRSEDTAVYYCARAEGSSWLGWFDPWGQGTLVTVSS
VL: SVLTQPPSASGTPGQRVTIPCSGSSSNIGNNYVYWYQQLPGTAPKLLVYGNNQRPSGVPDRFSVSKSGTSASLAISGLRSEDEADYYCAAWDDGLSGSGWVFGGGTKLTVL
As to B4, the binding result is “binds”.
